Assay results reported in patent US20050079559.

Molecular target: bacterial recombinant GST-Smad3 (UniProt P84022)
Sequence (P84022 whole entry, looked up): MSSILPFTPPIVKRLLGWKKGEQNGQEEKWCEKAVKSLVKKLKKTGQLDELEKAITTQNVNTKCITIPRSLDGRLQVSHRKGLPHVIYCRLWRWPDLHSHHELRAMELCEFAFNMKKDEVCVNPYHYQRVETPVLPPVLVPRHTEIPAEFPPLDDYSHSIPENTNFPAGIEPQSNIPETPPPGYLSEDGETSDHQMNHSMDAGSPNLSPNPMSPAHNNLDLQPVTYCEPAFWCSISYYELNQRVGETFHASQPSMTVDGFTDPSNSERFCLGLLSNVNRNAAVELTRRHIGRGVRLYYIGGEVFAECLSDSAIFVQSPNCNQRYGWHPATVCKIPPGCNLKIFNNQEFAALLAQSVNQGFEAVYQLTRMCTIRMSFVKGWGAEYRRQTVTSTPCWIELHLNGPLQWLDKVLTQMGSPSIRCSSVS

For phosphorylated (active) JNK, the “phosphorylation of recombinant Smad3 in an in vitro kinase assay, detected by immunoblotting” value was “the linker region of Smad3 was directly phosphorylated by p38 and JNK”.

phosphorylated (active) p38 was tested, and the “phosphorylation of recombinant Smad3 in an in vitro kinase assay, detected by immunoblotting” value was “the linker region of Smad3 was directly phosphorylated by p38 and JNK”.
